Reference: US12227570B2, “Anti-CEACAM6 antibodies and methods of use” (Singapore Health Services PTE LTD, priority 2016, dated 2025)

How the values were obtained:
[1] = tested on: PC-9 Gefitinib resistant clones (CL75, CL86, CL131) and parental PC-9; assay: Flow cytometry binding on PC-9 and gefitinib resistant PC-9 clones; type: cell-based
Protocol: Cells were harvested as single cell suspensions using trypsin. 1E5 cells were used per sample, and incubated with 100 μl of mAb culture supernatant for 30 min. Cells were then washed with 1% bovine serum albumin in PBS, and further incubated with 100 μl of goat anti-mouse antibody fluorescein isothiocyanate (FITC)-conjugated (1:500, DAKO, Denmark) for 15 min at 4° C. in the dark. Cells were again washed and resuspended in 200 μL of 1% BSA/PBS for analysis on Guava® easy Cyte 8HT Benchtop Flow Cytometer (Merck Millipore, USA). For interrogation of […] binding, cells were fixed with 4% PFA/PBS (Affymetrix, USA) at room temperature for 10 min, washed in PBS, and permeabilised with 0.1% triton/PBS for 5 min at room temperature, before proceeding with incubation with mAb supernatant/primary antibody. For staining with propidium iodide, PI was added to a final concentration of 5 μg/mL for 5 min just prior to analysis by the flow cytometer.

CEACAM6 = molecular target: T1, CEACAM6 (Homo sapiens, UniProt P40199); assay: Western blot / flow cytometry binding after PNGase or Tunicamycin treatment; conditions: for binding to the antigen band after PNGase treatment: Western blot, PC-9 lysate, N-glycans removed
T1 construct: 20 μg of PC-9 membrane protein extract was first denatured; endogenous in cells; host or cells: PC-9 cells
T1 sequence (P40199 35-320): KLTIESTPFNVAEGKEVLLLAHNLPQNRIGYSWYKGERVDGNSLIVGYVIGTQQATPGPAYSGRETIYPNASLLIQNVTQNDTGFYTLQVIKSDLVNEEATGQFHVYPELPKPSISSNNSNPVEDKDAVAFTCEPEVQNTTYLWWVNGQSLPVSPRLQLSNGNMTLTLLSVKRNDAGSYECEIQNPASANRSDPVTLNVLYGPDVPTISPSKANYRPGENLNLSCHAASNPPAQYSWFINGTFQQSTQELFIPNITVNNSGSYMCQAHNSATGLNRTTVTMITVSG
Protocol: Membrane proteins were extracted from PC-9 cell pellets using the Membrane Protein Extraction Kit (BioVision, USA). Briefly, cell pellets of 5E7 cells were resuspended in 1 mL of Homogenize Buffer and cell membranes broken in a dounce homogenizer. This was transferred into an Eppendorf tube and centrifuged at 700×g for 10 min at 4° C. to remove cell debris. The supernatant was transferred to a new Eppendorf tube and centrifuged at 12,000×g for 30 min at 4° C. to pellet the membrane. The membrane was finally resuspended in 500 μl of 1×Cell Lysis Buffer (Cell Signaling Technology, USA) containing protease inhibitors (Pierce ThermoScientific, USA). The membrane protein solution was clarified with by centrifugation at 15,000×g for 5 min at 4° C., to remove any insoluble proteins. Protein was quantified using the Pierce […] Protein Assay Reagent.
PC-9 membrane protein extracts, or IP products were denatured by in protein loading dye containing SDS at a final concentration of 1%, and heated at 95° C. for 5 min. The sample was then loaded into pre-cast gradient gel (NuPAGE 4-12% gradient gel, Invitrogen), and separated by SDS-PAGE running MOPS Running Buffer (NuPAGE Invitrogen, USA). After gel electrophoresis, the resolved proteins were transferred onto a polyvinylidene fluoride (PVDF) membrane (BioRad, USA) in a transfer buffer containing 20% methanol, 10% Tris-Glycine in DI water at constant voltage of 110V for 90 min.
The membrane was then blocked with 5% milk prepared in PBS/0.1% Tween-20 (PBS-T) for 30 min at room temperature. The membrane was then washed in PBS-T, followed by overnight incubation of GR6A04 at 2 μg/mL in 2.5% milk at 4° C. Subsequently, the membrane was washed in PBS-T, before incubation with goat anti-mouse secondary antibodies horseradish peroxidase-conjugated (1:10000, Dako) for 1 hour at room temperature. […]
PNGase digestion was carried out according to manufacturer's protocol (New England Biolabs). […] Digested proteins were subsequently analysed by Western blotting as described above. […]

NSCLC tissue = assay: IHC staining on NSCLC tissue microarray with adjacent normal (LC 1001 2a)
Protocol: (§1) TMA slides containing FFPE tissues were first heated in an oven at 60° C. for 30 min to remove any solvents. The slides were then dewaxed and re-hydrated through sequential immersion in Histoclear (2×), 100% ethanol (2×), 95% ethanol, 70% ethanol, and finally in DI water.
(§2) Heat-induced epitope retrieval was done in a solution containing 10 mM Tris Base, 1 mM EDTA, 0.05% Tween 20 at pH 9.0, and heated at 95° C. for 20 min. The container with the antigen retrieval solution and slides was then removed and allowed to cool to room temperature for an additional 20 min. The slides were then washed in DI water. Endogenous peroxidase activity was then blocked by incubation of the slides with 3% H2O2 in PBS for 30 min at room temperature. The slides were washed in DI water, followed by a blocking step with 10% normal goat serum in PBS for 30 min.
(§3) The slides were then incubated with GR6A04 at 5 μg/mL in blocking solution overnight at 4° C. The slides were then washed an incubated with a polymer-based anti-mouse secondary antibody conjugated with HRP (DAKO, USA) for 30 min at room temperature, and developed with the recommended DAB chromogen substrate solution for 2 min, and counterstained with Gill's Hematoxylin solution.
(§4) The stained slides were subsequently dehydrated through immersion in 50% ethanol, 70% ethanol, 90% ethanol, 100% ethanol (2×) and Histoclear (2×), before mounting with a glass cover slip. The slides were then imaged with the Zeiss AxioScan Digital Slide Scanner.

normal tissues = assay: IHC staining on FFPE normal tissue microarray (MNO961)
Protocol: as §1, §2, §3, §4

PC-9 cells = assay: Antibody internalisation by immunofluorescence; type: cell-based; conditions: 37° C.; a proportion of cells not internalised at 120 min

B1: GR6A04: mouse IgG1, κ anti-CEACAM6 monoclonal antibody, VH SEQ ID NO:1, VL SEQ ID NO:2, binds N-glycosylated CEACAM6 (antibody, V domains shown)
VH: SGPELVKPGASVKMSCKASGNTFTSYVMHWVKQKPGQGLEWIGYINPYNDGTKYNEKFKGKATLTSDKSSSTAYMELSSLTSEDSAVYYCARSTARATPYFYAMDYWGQGTSVTVSS
VL: DILMTQSPSSLAVTAGEKVTMRCKSSQSLLWSVNQNSYLSWYQLKQGQPPKLLLYGASIRESWVPDRFTGSGSGTDFTLTISNVHVEDLAVYYCQHNHGSFLPYTFGGGTKLEIK
modifications: Isolated antibody fragment
binding ([1]; Gefitinib sensitive parental PC-9 and another GR PC-9 clone not used in immunisation): similarly high binding | percentage positive-binding (reactivity) ([1]; three PC-9 Gefitinib resistant clones used for immunisation, FL-1 gated at 2% on secondary-only control): > 50% | binding after PNGase and Tunicamycin treatment (CEACAM6; PNGase digestion, Tunicamycin N-glycosylation inhibitor): affected | binding to the antigen band after PNGase treatment (CEACAM6): abolished binding | binding to the antigen band after PNGase treatment (CEACAM6; listed as GR 6A04): abolished | positive staining adenocarcinoma (cores positive/total) (NSCLC tissue; LC 1001 2a): 9/18 | positive staining squamous (cores positive/total) (NSCLC tissue; LC 1001 2a): 4/27 | staining of paired adjacent normal tissue (NSCLC tissue; LC 1001 2a): did not have any positive staining | staining of paired adjacent normal tissue (NSCLC tissue; LC 1001 2a, listed as GR 6A04): negative staining | positive stained lung adenocarcinoma cores (NSCLC tissue; focused NSCLC TMA): 50% | positive stained squamous cell cancer cores (NSCLC tissue; focused NSCLC TMA): 15% | colon cores weakly positive (2+) (normal tissues; MNO961): 2 of 3 | normal tissue cores stained positive (normal tissues; MNO961): 3 | prostate cores weakly positive (2+) (normal tissues; MNO961): 1 of 3 | normal tissue cores with no staining (normal tissues; MNO961, 35 anatomical sites): 93 of the 96 | time to internalise (PC-9 cells): ≤ 120 min
